Laboratory results as given in article PMC5673899, “Structural basis for receptor recognition of pollen tube attraction peptides” (Nature Communications, 2017).
Entries after “also recorded” stand apart in the source; their conditions may differ.

Experiments:
MIK1^LRR = test: Gel filtration assay with MIK1^LRR; format: binding, Arabidopsis; settings: 4 °C 30 min, 10 mM Bis-Tris pH 6.0, 100 mM NaCl
From the text: The genes of AtPRK3 ^LRR (residues 1–241), AtPRK4 ^LRR (residues 1–277), AtPRK5 ^LRR (residues 1–279), AtPRK6 ^LRR (residues 1–262), MIK1 ^LRR (residues 1–633), MIK2 ^LRR (residues 1–707) were amplified from Arabidopsis cDNA library by PCR and cloned into pFastBac-1 vector with a C-terminal 6 × His-tag. Their identities were confirmed by sequencing. The mature form of AtLURE1.1 (residues 20–94), AtLURE1.2 (residues 20–90), AtLURE1.3 (residues 21–91), and AtLURE1.4 (residues 20–90) were cloned into pFastBac-1 vector, with a modified N-terminal hemolin signal peptide and 6 × His-SUMO tag. Point mutation constructs were generated by QuickChange Site-Directed Mutagenesis Kit (Strategene). All the proteins were expressed using the Bac-to-Bac baculovirus expression system (Invitrogen) in High Five cells at 22 °C. One liter of High Five cells (2.0 × 10^6 cells mL^−1) cultured in the medium from Expression Systems was infected with 25 ml recombinant baculovirus and the media was collected after 72 h of infection. Secreted LRR proteins were purified using Ni-NTA (Novagen) and size-exclusion chromatography (Hiload 200, GE Healthcare) in buffer containing 10 mM Bis-Tris pH 6.0 and 100 mM NaCl. The His-SUMO tag of the AtLURE proteins was removed by Prescission Protease at 4 °C overnight in buffer containing 25 mM Tris pH 8.0 and 150 mM NaCl. […]

[1] = system: semi-in-vivo pollen tubes (wild type); test: AtLURE-responsive wavy assay, wild-type pollen tubes; format: cell-based, Arabidopsis; settings: 250 nM peptide in solid pollen germination medium
Method: Attraction activities of mutant AtLURE1.2 peptides were examined for semi-in-vivo pollen tubes growing through cut, pollinated pistils by gelatin-beads assay and wavy assay, [20]. For the gelatin-beads assay, pollen tubes were grown on solid pollen germination medium poured into a mold made with 1-mm thick silicone rubber and cover glasses. After hand-pollination, the topside cover glass was removed and the medium was covered with hydrated silicone oil (KF-96–100CS; Shin-Etsu). Attraction of pollen tubes toward the peptide was evaluated using AtLURE1 peptide containing gelatine beads under an inverted microscope (IX71, Olympus) equipped with a micro-manipulator (Narishige). For the AtLURE1-responsive wavy assay, the purified AtLURE1.2 peptide was added to solid pollen germination medium, which was melted at 70 °C and then cooled to a certain degree. The mixture was mixed by vortexing and poured into the mold. Pollen tubes of each genotype were grown through cut styles, as mentioned above. Each peptide (25 μM in 10 mM Bis-Tris (pH 6.0) and 100 mM NaCl) was diluted to 250 nM by cultivation medium in both assays. […]
pollen tubes. Fluorescence is from mRuby2 fused to the C-terminal of PRK6 receptors, showing that all of mutant PRK6 receptors localize normally to the plasma membrane of the pollen tube tip. […]

MIK1 = settings: cited from earlier work
From the text: (§1) More recently, progress has been made in the identification of sensory receptors for external cues during pollen tube guidance, [18]. Through genetic screening, two research groups identified different pollen tube specific receptor kinases (RKs) which can function as the receptors of AtLURE1 (refs. [19], [20]). […] By contrast, our data ... || page 2: co-receptor in the signaling system. Typos : - line 167 : Lue242 instead of Leu242 Reviewer #3 (Remarks to the Author): The Zhang et al. manuscript is a continuation of the study of pollen tube guidance to its female target to deliver sperm for fertilization, starting almost twenty years ago by the Higashiyama group, which recently reported a number of pollen receptor kinases (PRKs) as receptors for the attractant LURE1(- 2) from Arabidopsis. The Zhang et al study here caps it by elucidating the structure of LURE1-PRK6 on the atomic level. In principle, the study is an imminently publi ...

MIK2 = settings: cited from earlier work
From the text: as §1

MDIS1 = settings: cited from earlier work
From the text: as §1

B1: AtLURE1.2: mature form of AtLURE1.2 (residues 20–90), defensin-like cysteine-rich peptide expressed in insect cells (protein)
chain: TLINGSSDEERTYSFSPTTSPFDPRSLNQELKIGRIGYCFDCARACMRRGKYIRTCSFERKLCRCSISDIK
modifications: left off: His6, N-terminal, cleaved | SUMO, N-terminal, cleaved
notes: mature form of AtLURE1.2 (residues 20–90), defensin-like cysteine-rich peptide expressed in insect cells
Question: For B1, which “interaction in gel filtration” value (MIK1^LRR) is on record?
Answer: no interaction; also recorded: none of the purified AtPRK3^LRR, MIK1^LRR or MIK2^LRR proteins showed detectable interaction

Question: What about the “wavy pollen tube response” value [1] of the same molecule?
Answer: caused pollen tube wavy response

Question: What about the “binding to MIK1” value (MIK1) of the same molecule?
Answer: directly binds

Question: And the “binding to MIK2” value (MIK2)?
Answer: directly binds

Question: And the “binding to MDIS1” value (MDIS1)?
Answer: directly binds
